Values quoted from earlier work in paper PMC2866048.

Target: F-actin (Oryctolagus cuniculus) (UniProt P68135)

- Kd: 0.12 µM
Substance: drebrin (from UniProt Q16643)
